Among the data in patent US20090099343A1 are ELISA A405nm and recovery rate following 1.0 M NaCl elution values, retold here.

Where “and” joins values, the source holds several entries; their conditions need not be identical. Equal entries are not always repeated.

The target of one test is T1, PrP^Sc, pathogenic prion protein in brain homogenate of RML PrP^Sc+ Balb-c mice (mouse), P04925. Put plainly: bead pull-down from PrP^Sc+ mouse brain homogenate; ELISA.
T1 sequence (P04925 23-230 limits assumed): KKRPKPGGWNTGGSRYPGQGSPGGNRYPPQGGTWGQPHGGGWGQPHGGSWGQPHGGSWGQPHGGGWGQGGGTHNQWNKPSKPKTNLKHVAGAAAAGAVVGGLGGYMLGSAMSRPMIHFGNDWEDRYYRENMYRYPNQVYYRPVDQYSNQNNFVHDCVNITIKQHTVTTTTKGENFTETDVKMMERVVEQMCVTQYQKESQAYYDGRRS
Take KKRPKGGG (modifications not checked) [Peptide reagent SEQ ID NO:119]: the ELISA A405nm amounted to 0.61 A405nm.

For KKRPKGGG (modifications not checked) [Peptide reagent SEQ ID NO:121], the ELISA A405nm was determined as 0.509 A405nm. With KKRPKGGG (modifications not checked) [Peptide reagent SEQ ID NO:122], the ELISA A405nm was determined as 0.503 A405nm. For the molecule KKRPKGGG (modifications not checked) [Peptide reagent SEQ ID NO:120], the ELISA A405nm came out at 0.631 A405nm.

The next test concerns the target T1, PrP^Sc, pathogenic prion protein in …. Kind of test: bead pull-down, NaCl dissociation of bound PrP^Sc; Western blot.
For GGGKKRPKPGG (modifications not checked) [Peptide reagent SEQ ID NO:68], the recovery rate following 1.0 M NaCl elution was 40% and 50%. Take GGGKKKKKKKK (modifications not checked) [Peptide reagent SEQ ID NO:85]: the recovery rate following 1.0 M NaCl elution is 40% and 50%.
